{"source": "patent US10941182", "about": "(Amgen, dated 2021)", "binders": {"B1": {"name": "Apelin polypeptide SEQ ID NO: 376 (peptide)", "peptide": "Tridecanoyl-[γGlu][AEEA][AEEA]QRP[NMeR][αMeL]SHKG[Oic][Nle][αMeP][Phe(4-Cl)]-OH", "SMILES": "CCCCCCCCCCCCC(=O)N[C@@H](CCC(=O)NCCOCCOCC(=O)NCCOCCOCC(=O)N[C@@H](CCC(N)=O)C(=O)N[C@@H](CCCNC(=N)N)C(=O)N1CCC[C@H]1C(=O)N(C)[C@@H](CCCNC(=N)N)C(=O)N[C@@](C)(CC(C)C)C(=O)N[C@@H](CO)C(=O)N[C@@H](Cc1c[nH]cn1)C(=O)N[C@@H](CCCCN)C(=O)NCC(=O)N1[C@H](C(=O)N[C@@H](CCCC)C(=O)N2CCC[C@@]2(C)C(=O)N[C@@H](Cc2ccc(Cl)cc2)C(=O)O)C[C@@H]2CCCC[C@@H]21)C(=O)O"}, "B2": {"name": "Apelin polypeptide SEQ ID NO: 386 (peptide)", "peptide": "Tridecanoyl-[γGlu][AEEA][AEEA][dQ]RP[NMeR][αMeL]SHKG[Oic][Nle]P[Phe(4-Cl)]-OH", "SMILES": "CCCCCCCCCCCCC(=O)N[C@@H](CCC(=O)NCCOCCOCC(=O)NCCOCCOCC(=O)N[C@H](CCC(N)=O)C(=O)N[C@@H](CCCNC(=N)N)C(=O)N1CCC[C@H]1C(=O)N(C)[C@@H](CCCNC(=N)N)C(=O)N[C@@](C)(CC(C)C)C(=O)N[C@@H](CO)C(=O)N[C@@H](Cc1c[nH]cn1)C(=O)N[C@@H](CCCCN)C(=O)NCC(=O)N1[C@H](C(=O)N[C@@H](CCCC)C(=O)N2CCC[C@H]2C(=O)N[C@@H](Cc2ccc(Cl)cc2)C(=O)O)C[C@@H]2CCCC[C@@H]21)C(=O)O"}, "B3": {"name": "Apelin polypeptide SEQ ID NO: 385 (peptide)", "peptide": "Tridecanoyl-[γGlu][AEEA][AEEA]QRP[NMeR][αMeL]SHKG[Oic][Nle]P[Phe(4-Cl)]-OH", "SMILES": "CCCCCCCCCCCCC(=O)N[C@@H](CCC(=O)NCCOCCOCC(=O)NCCOCCOCC(=O)N[C@@H](CCC(N)=O)C(=O)N[C@@H](CCCNC(=N)N)C(=O)N1CCC[C@H]1C(=O)N(C)[C@@H](CCCNC(=N)N)C(=O)N[C@@](C)(CC(C)C)C(=O)N[C@@H](CO)C(=O)N[C@@H](Cc1c[nH]cn1)C(=O)N[C@@H](CCCCN)C(=O)NCC(=O)N1[C@H](C(=O)N[C@@H](CCCC)C(=O)N2CCC[C@H]2C(=O)N[C@@H](Cc2ccc(Cl)cc2)C(=O)O)C[C@@H]2CCCC[C@@H]21)C(=O)O"}, "B4": {"name": "Apelin polypeptide SEQ ID NO: 428 (peptide)", "peptide": "Tridecanoyl-[γGlu][AEEA][AEEA]QRP[Nle]LSHKGP[Nle]P[Phe(4-Cl)]-OH", "SMILES": "CCCCCCCCCCCCC(=O)N[C@@H](CCC(=O)NCCOCCOCC(=O)NCCOCCOCC(=O)N[C@@H](CCC(N)=O)C(=O)N[C@@H](CCCNC(=N)N)C(=O)N1CCC[C@H]1C(=O)N[C@@H](CCCC)C(=O)N[C@@H](CC(C)C)C(=O)N[C@@H](CO)C(=O)N[C@@H](Cc1c[nH]cn1)C(=O)N[C@@H](CCCCN)C(=O)NCC(=O)N1CCC[C@H]1C(=O)N[C@@H](CCCC)C(=O)N1CCC[C@H]1C(=O)N[C@@H](Cc1ccc(Cl)cc1)C(=O)O)C(=O)O"}, "B5": {"name": "Apelin polypeptide SEQ ID NO: 528 (peptide)", "peptide": "Tridecanoyl-[γGlu][AEEA][AEEA][dQ]RP[Nle][Cha]SHKG[Oic][Nle][Aib][Phe(4-Cl)]-OH", "SMILES": "CCCCCCCCCCCCC(=O)N[C@@H](CCC(=O)NCCOCCOCC(=O)NCCOCCOCC(=O)N[C@H](CCC(N)=O)C(=O)N[C@@H](CCCNC(=N)N)C(=O)N1CCC[C@H]1C(=O)N[C@@H](CCCC)C(=O)N[C@@H](CC1CCCCC1)C(=O)N[C@@H](CO)C(=O)N[C@@H](Cc1c[nH]cn1)C(=O)N[C@@H](CCCCN)C(=O)NCC(=O)N1[C@H](C(=O)N[C@@H](CCCC)C(=O)NC(C)(C)C(=O)N[C@@H](Cc2ccc(Cl)cc2)C(=O)O)C[C@@H]2CCCC[C@@H]21)C(=O)O"}}, "key": {"human APJ receptor": {"target": "T1, human APJ receptor (human, UniProt P35414 1-380)", "T1 sequence (looked up)": "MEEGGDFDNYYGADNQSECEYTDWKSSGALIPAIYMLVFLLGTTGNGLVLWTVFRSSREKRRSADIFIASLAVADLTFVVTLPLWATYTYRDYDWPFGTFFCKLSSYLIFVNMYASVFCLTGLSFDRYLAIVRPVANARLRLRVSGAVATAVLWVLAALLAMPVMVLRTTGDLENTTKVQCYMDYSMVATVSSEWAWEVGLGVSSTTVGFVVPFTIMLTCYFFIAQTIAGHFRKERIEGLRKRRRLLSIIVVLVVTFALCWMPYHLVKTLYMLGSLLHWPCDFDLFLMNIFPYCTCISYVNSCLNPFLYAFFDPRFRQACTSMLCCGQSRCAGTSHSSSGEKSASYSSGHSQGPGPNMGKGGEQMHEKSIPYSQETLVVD", "experiment": "cell-based or functional assay"}, "rat APJ receptor": {"target": "T2, rat APJ receptor (rat, UniProt Q9JHG3 1-377)", "T2 sequence (looked up)": "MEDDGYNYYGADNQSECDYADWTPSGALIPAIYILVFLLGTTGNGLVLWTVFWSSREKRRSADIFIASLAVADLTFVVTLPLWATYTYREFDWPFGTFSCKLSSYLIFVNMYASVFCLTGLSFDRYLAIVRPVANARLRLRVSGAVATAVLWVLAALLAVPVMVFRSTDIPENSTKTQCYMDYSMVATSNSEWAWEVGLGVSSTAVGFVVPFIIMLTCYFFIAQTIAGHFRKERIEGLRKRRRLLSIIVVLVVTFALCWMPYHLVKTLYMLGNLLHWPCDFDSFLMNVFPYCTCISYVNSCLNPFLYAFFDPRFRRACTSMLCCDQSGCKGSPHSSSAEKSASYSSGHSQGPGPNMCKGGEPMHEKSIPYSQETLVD", "experiment": "cell-based or functional assay"}}, "note": "Starred links: 1 amine or outer side, 2 acyl side, 3 side chain; linkers in the order of their positions; H or OH if unused. Non-standard residues stand in square brackets, D forms with d. *: point of attachment. Oic = O=C(O)[C@@H]1C[C@@H]2CCCC[C@@H]2N1; Phe(4-Cl) = N[C@@H](Cc1ccc(Cl)cc1)C(=O)O; γGlu = O=C(O)[C@H](CCC(=O)[*:2])N[*:1]; NMeR = CN[C@@H](CCCNC(=N)N)C(=O)O; Tridecanoyl = CCCCCCCCCCCCC(=O)*; Cha = N[C@@H](CC1CCCCC1)C(=O)O; αMeL = CC(C)C[C@](C)(N)C(=O)O; αMeP = C[C@@]1(C(=O)O)CCCN1; Nle = CCCC[C@H](N)C(=O)O; AEEA = NCCOCCOCC(=O)O; Aib = CC(C)(N)C(=O)O", "data": [{"binder": "B1", "values": [{"measurement": "EC50 Human APJ Receptor (GTPγS assay)", "setting": "human APJ receptor", "value": 0.237, "unit": "nM"}, {"measurement": "EC50 Rat APJ Receptor (GTPγS assay)", "setting": "rat APJ receptor", "value": 0.414, "unit": "nM"}]}, {"binder": "B2", "values": [{"measurement": "EC50 Human APJ Receptor (GTPγS assay)", "setting": "human APJ receptor", "value": 0.0934, "unit": "nM"}, {"measurement": "EC50 Rat APJ Receptor (GTPγS assay)", "setting": "rat APJ receptor", "value": 0.261, "unit": "nM"}]}, {"binder": "B3", "values": [{"measurement": "EC50 Human APJ Receptor (GTPγS assay)", "setting": "human APJ receptor", "value": 0.0688, "unit": "nM"}, {"measurement": "EC50 Rat APJ Receptor (GTPγS assay)", "setting": "rat APJ receptor", "value": 0.17, "unit": "nM"}]}, {"binder": "B4", "values": [{"measurement": "EC50 Human APJ Receptor (GTPγS assay)", "setting": "human APJ receptor", "value": 0.4, "unit": "nM"}, {"measurement": "EC50 Rat APJ Receptor (GTPγS assay)", "setting": "rat APJ receptor", "value": 0.494, "unit": "nM"}]}, {"binder": "B5", "values": [{"measurement": "EC50 Human APJ Receptor (GTPγS assay)", "setting": "human APJ receptor", "value": 5.63, "unit": "nM"}, {"measurement": "EC50 Rat APJ Receptor (GTPγS assay)", "setting": "rat APJ receptor", "value": 21.8, "unit": "nM"}]}]}
